From US20100040635A1 (SEA LANE BIOTECHNOLOGIES, published 2010)
Numbering of substitutions follows the chain as printed.

B1: Antibody 4 (antibody, V domains shown)
VH: QVQLQESGPGLVKPSETLSLTCTVSGYSFDSGYYWGWLRQPPGKGLEWIGSIYHSRNTYYNPSLKSRVTISVDTSKNQFSLQLSSVTAADTAVYYCARGTWYSSNLRYWFDPWGKGTL
VL: NFMLTQPHSVSESPGKTVTISCTGSGGNIARNYVQWYQQRPGSAPVTVILEDDKRPSGIPDRFSGSIDRSSNSASLTISGLRTEDEALYYCQSYDDSDLVVFGGGTKLT
B2: Antibody 1 (antibody, V domains shown)
VH: QVQLVQSGAEVKKPGSSVRVSCKTSGGTFSSYAVTWVRQAPGQGLEWMGGIIGMFGTTNYAQKFQGRLTITADEMTSTAYMELSSLRSEDTAVYYCARGSYYYETTLDYWGRGTL
VL: ETTLTQSPGTLSLSPGERATLSCRVSQSVSSNYLAWYQQKPGQAPRLLIYGASSRATGIPDRFSGSGSGTDFTLTISRLEPEDFAVYYCQQYGTSPRAFGHGTKVEIKR
B3: Antibody 3 (antibody, V domains shown)
V domain 1: B2 VH with Q1E, R19K, G50A, L68V, M75L, E89D, T105S, T106S, R112K
V domain 2: QSVLTQPPSVSGAPGQRVTISCGGSRSNIGAGYDVHWYQQFPGTAPKVVIYGNNNRPSGVPDRFSGSKSGTSASLAITGLQAEDEANYYCQSYDTNLGGSIFGGGTQVTVL
B4: Antibody 2 (antibody, V domains shown)
VH: B2 VH with R19K, L68V, M75L, T105S, T106S
VL: ETTLTQSPATLSVSPGERATLSCRASQSVSRNLAWYQQKPGQAPRLLIYGASSRATGIPDRFSGSGSGTDFTLTISRLEPEDFAVYYCQQYGSSSITFGQGTRLEIKR

Target: H3 hemagglutinin of influenza A/Hong Kong/68 (influenza A virus H3 A/Hong Kong/68)
Test: cell-based or functional assay

With B1 as the binder, how does the “Minimum inhibitory concentrations required to neutralize virus” value read?
Its value is > 333 µg/mL.

For B2, which “Minimum inhibitory concentrations required to neutralize virus” value is on record?
The value was > 333 µg/mL.

How did the “Minimum inhibitory concentrations required to neutralize virus” value turn out when B3 was run?
Its value is > 333 µg/mL.

How did the “Minimum inhibitory concentrations required to neutralize virus” value turn out when B4 was run?
Its value is > 333 µg/mL.
